Data reported in PMC5746516.

Biological target: Protein phosphatase 1 (PP1) (UniProt P62136)
Assay: co-IP

Sequence of UniProt P62136 (P62136 whole entry): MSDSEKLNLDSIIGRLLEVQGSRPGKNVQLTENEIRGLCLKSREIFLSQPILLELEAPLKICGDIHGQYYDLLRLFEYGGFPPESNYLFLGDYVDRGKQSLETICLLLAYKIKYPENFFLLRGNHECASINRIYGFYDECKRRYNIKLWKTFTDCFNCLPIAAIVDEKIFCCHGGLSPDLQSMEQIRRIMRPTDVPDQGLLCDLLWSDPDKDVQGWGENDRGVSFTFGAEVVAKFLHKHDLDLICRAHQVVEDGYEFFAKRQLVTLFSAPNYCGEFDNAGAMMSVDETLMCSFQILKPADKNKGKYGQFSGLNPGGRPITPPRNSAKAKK

interaction with PP1 by co-IP densitometry, percent of wild type [%]	Binder
28.9	NBCe1-B 3-point mutant (F922A, R925A, and K927A), GFP-tagged (natural protein) MEDEAVLDRGASFLKHVCDEEEVEGHHTIYIGVHVPKSYRRRRRHKRKTGHKEKKEKERISENYSDKSDIENADESSSSILKPLISPAAERIRFILGEEDDSPAPPQLFTELDELLAVDGQEMEWKETARWIKFEEKVEQGGERWSKPHVATLSLHSLFELRTCMEKGSIMLDREASSLPQLVEMIVDHQIETGLLKPELKDKVTYTLLRKHRHQTKKSNLRSLADIGKTVSSASRMFTNPDNGSPAMTHRNLTSSSLNDISDKPEKDQLKNKFMKKLPRDAEASNVLVGEVDFLDTPFIAFVRLQQAVMLGALTEVPVPTRFLFILLGPKGKAKSYHEIGRAIATLMSDEVFHDIAYKAKDRHDLIAGIDEFLDEVIVLPPGEWDPAIRIEPPKSLPSSDKRKNMYSGGENVQMNGDTPHDGGHGGGGHGDCEELQRTGRFCGGLIKDIKRKAPFFASDFYDALNIQALSAILFIYLATVTNAITFGGLLGDATDNMQGVLESFLGTAVSGAIFCLFAGQPLTILSSTGPVLVFERLLFNFSKDNNFDYLEFRLWIGLWSAFLCLILVATDASFLVQYFTRFTEEGFSSLISFIFIYDAFKKMIKLADYYPINSNFKVGYNTLFSCTCVPPDPANISISNDTTLAPEYLPTMSSTDMYHNTTFDWAFLSKKECSKYGGNLVGNNCNFVPDITLMSFILFLGTYTSSMALKKFKTSPYFPTTARKLISDFAIILSILIFCVIDALVGVDTPKLIVPSEFKPTSPNRGWFVPPFGENPWWVCLAAAIPALLVTILIFMDQQITAVIVNRKEHKLKKGAGYHLDLFWVAILMVICSLMALPWYVAATVISIAHIDSLKMETETSAPGEQPKFLGVREQRVTGTLVFILTGLSVFMAPILKFIPMPVLYGVFLYMGVASLNGVQAMDALALLLMPLKHQPDFIYLRHVPLRRVHLFTFLQVLCLALLWILKSTVAAIIFPVMILALVAVRKGMDYLFSQHDLSFLDDVIPEKDKKKKEDEKKKKKKKGSLDSDNDDSDCPYSEKVPSIKIPMDIMEQQPFLSDSKPSDRERSPTFLERHTSC
18.2	NBCe1-B PP1-binding consensus residue deletion mutant (deletion of amino acids 922-927), GFP-tagged (natural protein) MEDEAVLDRGASFLKHVCDEEEVEGHHTIYIGVHVPKSYRRRRRHKRKTGHKEKKEKERISENYSDKSDIENADESSSSILKPLISPAAERIRFILGEEDDSPAPPQLFTELDELLAVDGQEMEWKETARWIKFEEKVEQGGERWSKPHVATLSLHSLFELRTCMEKGSIMLDREASSLPQLVEMIVDHQIETGLLKPELKDKVTYTLLRKHRHQTKKSNLRSLADIGKTVSSASRMFTNPDNGSPAMTHRNLTSSSLNDISDKPEKDQLKNKFMKKLPRDAEASNVLVGEVDFLDTPFIAFVRLQQAVMLGALTEVPVPTRFLFILLGPKGKAKSYHEIGRAIATLMSDEVFHDIAYKAKDRHDLIAGIDEFLDEVIVLPPGEWDPAIRIEPPKSLPSSDKRKNMYSGGENVQMNGDTPHDGGHGGGGHGDCEELQRTGRFCGGLIKDIKRKAPFFASDFYDALNIQALSAILFIYLATVTNAITFGGLLGDATDNMQGVLESFLGTAVSGAIFCLFAGQPLTILSSTGPVLVFERLLFNFSKDNNFDYLEFRLWIGLWSAFLCLILVATDASFLVQYFTRFTEEGFSSLISFIFIYDAFKKMIKLADYYPINSNFKVGYNTLFSCTCVPPDPANISISNDTTLAPEYLPTMSSTDMYHNTTFDWAFLSKKECSKYGGNLVGNNCNFVPDITLMSFILFLGTYTSSMALKKFKTSPYFPTTARKLISDFAIILSILIFCVIDALVGVDTPKLIVPSEFKPTSPNRGWFVPPFGENPWWVCLAAAIPALLVTILIFMDQQITAVIVNRKEHKLKKGAGYHLDLFWVAILMVICSLMALPWYVAATVISIAHIDSLKMETETSAPGEQPKFLGVREQRVTGTLVFILTGLSVFMAPILKFIPMPVLYGVFLYMGVASLNGVQLLLMPLKHQPDFIYLRHVPLRRVHLFTFLQVLCLALLWILKSTVAAIIFPVMILALVAVRKGMDYLFSQHDLSFLDDVIPEKDKKKKEDEKKKKKKKGSLDSDNDDSDCPYSEKVPSIKIPMDIMEQQPFLSDSKPSDRERSPTFLERHTSC
